From patent US20120322150

Columns and labels:
GST-BIN2, Q39011 = molecular target: T1, GST-BIN2, Q39011
T1 chain: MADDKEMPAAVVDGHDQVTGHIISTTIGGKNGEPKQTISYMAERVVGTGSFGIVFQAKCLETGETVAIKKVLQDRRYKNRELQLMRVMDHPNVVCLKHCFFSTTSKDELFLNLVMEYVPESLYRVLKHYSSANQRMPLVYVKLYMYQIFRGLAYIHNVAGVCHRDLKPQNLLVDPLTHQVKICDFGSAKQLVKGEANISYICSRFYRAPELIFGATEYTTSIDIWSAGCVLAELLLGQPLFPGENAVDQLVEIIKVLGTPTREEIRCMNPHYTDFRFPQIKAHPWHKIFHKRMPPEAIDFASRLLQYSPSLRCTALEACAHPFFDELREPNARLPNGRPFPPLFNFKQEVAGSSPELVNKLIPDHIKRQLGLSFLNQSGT

[1] = molecular target: T2, GST-BSU1-KL (N-terminal Kelch domain)
T2 chain: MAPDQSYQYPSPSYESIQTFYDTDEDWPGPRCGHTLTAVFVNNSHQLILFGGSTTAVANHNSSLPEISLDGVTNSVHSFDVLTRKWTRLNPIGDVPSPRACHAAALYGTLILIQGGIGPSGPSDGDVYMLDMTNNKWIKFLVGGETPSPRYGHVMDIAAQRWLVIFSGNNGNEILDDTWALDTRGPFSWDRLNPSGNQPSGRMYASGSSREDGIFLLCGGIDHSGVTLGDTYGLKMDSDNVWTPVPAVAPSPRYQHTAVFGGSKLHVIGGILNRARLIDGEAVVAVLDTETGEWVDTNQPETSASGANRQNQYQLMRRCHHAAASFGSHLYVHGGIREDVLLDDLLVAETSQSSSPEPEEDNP

MBP-BZR1, Q8S307 = molecular target: T3, MBP-BZR1, Q8S307
T3 chain: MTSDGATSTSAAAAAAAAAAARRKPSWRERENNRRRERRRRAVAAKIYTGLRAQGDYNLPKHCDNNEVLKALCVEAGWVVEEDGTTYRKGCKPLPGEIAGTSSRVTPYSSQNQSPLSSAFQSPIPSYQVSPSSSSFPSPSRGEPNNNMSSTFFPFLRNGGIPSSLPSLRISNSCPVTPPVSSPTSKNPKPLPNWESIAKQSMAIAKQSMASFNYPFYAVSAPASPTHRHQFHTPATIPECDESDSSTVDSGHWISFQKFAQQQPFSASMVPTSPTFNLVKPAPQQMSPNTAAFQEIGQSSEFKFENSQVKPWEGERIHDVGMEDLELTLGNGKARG

B1: GST-BSU1-P (C-terminal phosphatase domain) (protein)
chain: DNYMLLDDYLMDEPKPLSSEPEASSFIMRSTSEIAMDRLAEAHNLPTIENAFYDSAIEGYVPLQHGAETVGNRGGLVRTASLDQSTQDLHKKVISTLLRPKTWTPPANRDFFLSYLEVKHLCDEVEKIFMNEPTLLQLKVPIKVFGDIHGQYGDLMRLFHEYGHPSVEGDITHIDYLFLGDYVDRGQHSLEIIMLLFALKIEYPKNIHLIRGNHESLAMNRIYGFLTECEERMGESYGFEAWLKINQVFDYLPLAALLEKKVLCVHGGIGRAVTIEEIENIERPAFPDTGSMVLKDILWSDPTMNDTVLGIVDNARGEGVVSFGPDIVKAFLERNGLEMILRAHECVIDGFERFADGRLITVFSATNYCGTAQNAGAILVIGRDMVIYPKLIHPHPPPISSSEEDYTDKAWMQELNIEMPPTPARGESSE
GST-BIN2, Q39011
  BIN2 phosphorylation of MBP-BZR1 (in vitro kinase assay with 32P-γATP): The phosphatase domain of BSU1 reduced BIN2 phosphorylation of BZR1

B2: GST-BIN2 (protein)
chain: T1 chain
[1]
  BIN2 phosphorylation of MBP-BZR1 (in vitro kinase assay with 32P-γATP): the Kelch repeat domain showed no effect

B3: GST-AtSK12 (protein)
chain: MASVGIEPSAAVRESTGNVTDADRLPEEMKDMKIQDDKEMEATIVNGNVTETGHIIVTTIGGRNGQPKQTISYMAERVVGHGSFGVVFQAKCLETGETVAIKKVLQDRRYKNRELQTMRLLDHPNVVSLKHCFFSTTEKDELYLNLVLEYVPETVHRVIKHYNKLNQRMPLVYVKLYTYQIFRSLSYIHRCIGVCHRDIKPQNLLVNPHTHQVKLCDFGSAKVLVKGEPNISYICSRYYRAPELIFGATEYTTAIDVWSAGCVLAELLLGQPLFPGESGVDQLVEIIKVLGTPTREEIKCMNPNYTEFKFPQIKAHPWHKIFHKRMPPEAVDLVSRLLQYSPNLRCAALDSLVHPFFDELRDPNARLPNGRFLPPLFNFKPHELKGVPVEMVAKLVPEHARKQCPWLSL
MBP-BZR1, Q8S307
  phosphorylation of MBP-BZR1 (in vitro kinase assay with 32P-γATP): AtSK12 strongly phosphorylates BZR1 in vitro
